The values that follow come from patent US20170112792.

The target of data set [1] is T1, Erk1, P27361.
T1 chain: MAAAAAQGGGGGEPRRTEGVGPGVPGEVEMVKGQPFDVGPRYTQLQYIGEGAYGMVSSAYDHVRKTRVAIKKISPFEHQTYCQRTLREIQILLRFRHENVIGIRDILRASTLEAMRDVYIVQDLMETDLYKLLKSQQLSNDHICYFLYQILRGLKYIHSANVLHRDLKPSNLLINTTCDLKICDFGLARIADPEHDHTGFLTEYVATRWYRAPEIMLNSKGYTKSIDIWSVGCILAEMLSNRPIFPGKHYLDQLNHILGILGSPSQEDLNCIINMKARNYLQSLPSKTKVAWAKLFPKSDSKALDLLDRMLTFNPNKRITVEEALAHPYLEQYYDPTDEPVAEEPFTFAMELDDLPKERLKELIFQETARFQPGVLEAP

In data set [2] the target is Erk2, P28482.
Erk2, P28482, sequence (P28482 whole entry): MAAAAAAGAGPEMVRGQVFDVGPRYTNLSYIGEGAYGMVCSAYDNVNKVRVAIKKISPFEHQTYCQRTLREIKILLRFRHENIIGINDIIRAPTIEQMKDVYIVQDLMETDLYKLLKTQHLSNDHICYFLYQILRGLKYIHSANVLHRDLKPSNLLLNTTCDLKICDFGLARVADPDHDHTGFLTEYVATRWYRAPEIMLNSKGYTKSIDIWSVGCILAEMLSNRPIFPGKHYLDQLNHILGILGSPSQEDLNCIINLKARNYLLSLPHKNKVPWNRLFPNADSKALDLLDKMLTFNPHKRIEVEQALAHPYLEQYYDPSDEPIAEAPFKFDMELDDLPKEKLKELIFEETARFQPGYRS

B1: Flag-Rab2A (protein)
chain: MAYAYLFKYIIIGDTGVGKSCLLLQFTDKRFQPVHDLTIGVEFGARMITIDGKQIKLQIWDTAGQESFRSITRSYYRGAAGALLVYDITRRDTFNHLTTWLEDARQHSNSNMVIMLIGNKSDLESRREVKKEEGEAFAREHGLIFMETSAKTASNVEEAFINTAKEIYEKIQEGVFDINNEANGIKIGPQHAATNATHAGNQGGQQAGGGCC
Take B1: the Erk1/2 phosphorylation entry in data set [1] and in data set [2] was “Flag-Rab2A expression restored Erk1/2 phosphorylation in a dose-dependent manner” each time.
